The supplement of paper PMC7877785
± gives the uncertainty stated by the source.

Assay: self-splicing fitness, log relative to wild type (ln ratio); higher = more splicing; Tetrahymena group I intron in knt gene, E. coli kanamycin selection, DiMSum; sequences stand for … in CUCUCU…GGAGGGAAAAGUUAUCAGGCAUGCACCUGGUAGCUAGUCUUUAAACCAAUAGAUUGCAUCGGUUUAAAAGGCAAGACCGUCAAAUUGCGGGAAAGGGGUCAACAGCCGUUCAGUACCAAGUCUCAGGGGAAACUUUGAGAUGGCCUUGCAAAGGGUAUGGUAAUAAGCUGACGGACAUGGUCCUAACCACGCAGCCAAGUCCUAAGUCAACAGAUCUUCUGUUGAUAUGGAUGCAGUUCACAGACUAAAUGUCGGUCGGGGAAGAUGUAUUCUUCUCAUAAGAUAUAGUCGGACCUCUCCUUAAUGGGAGCUAGCGGAUGAAGUGAUGCAACACUGGAGCCGCUGGGAACUAAUUUGUAUGCGAAAGUAUAUUGAUUAGUUUUGGAGUACUCGUGGUCG
In short: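 The eight P1ex-region nucleotides of an intron in the knt kanamycin-resistance gene on pET-22b(+) were all randomised and the library put into E. coli BL21(DE3). Six replicate transformations were grown overnight at 37°C or 30°C on LB agar with or without 25 μg/mL kanamycin, together with 100 μg/mL carbenicillin, 50 μM IPTG and 0.2% rhamnose. Colonies were pooled and amplicon-sequenced on an Illumina HiSeq 2500. Fitness from DiMSum is the error-weighted combination of wild-type-normalised replicate fold changes, kanamycin over none.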

Sequence	self-splicing fitness (ln) (30 °C)	self-splicing fitness (ln) (37 °C)
CAGCAGCAAUAUUACGCAUC	-2.71 ± 0.12	-1.16 ± 0.1
CAGCAGCAAUAUUACGCCAU	-3.12 ± 0.24	-1.78 ± 0.21
CAGCAGCAAUAUUACGCCUC	-1.98 ± 0.13	-0.839 ± 0.14
CAGCAGCAAUAUUACGCGGU	-1.52 ± 0.1	-1.74 ± 0.18
CAGCAGCAAUAUUACGCGUU	-3.04 ± 0.14	-2.45 ± 0.17
CAGCAGCAAUAUUACGCUUC	-3.43 ± 0.19	-2.63 ± 0.28
CAGCAGCAAUAUUACGCUUG	-2.88 ± 0.12	-2.61 ± 0.19
CAGCAGCAAUAUUACGCUUU	-2.76 ± 0.14	-1.63 ± 0.12
CAGCAGCAAUAUUACGGAAC	-1.79 ± 0.3	-1.87 ± 0.44
CAGCAGCAAUAUUACGGAAU	-4.16 ± 0.24	-1.95 ± 0.16
CAGCAGCAAUAUUACGGACG	-0.284 ± 0.069	-0.581 ± 0.081
CAGCAGCAAUAUUACGGAGC	-3.3 ± 0.33	-2.68 ± 0.39
CAGCAGCAAUAUUACGGCAC	-3.25 ± 0.15	-0.851 ± 0.17
CAGCAGCAAUAUUACGGGAU	-4.61 ± 0.22	-2.35 ± 0.12
CAGCAGCAAUAUUACGGGGC	-3.66 ± 0.14	-2.45 ± 0.15
CAGCAGCAAUAUUACGGGUC	-2.33 ± 0.14	-1.96 ± 0.19
CAGCAGCAAUAUUACGGUAC	-3.46 ± 0.14	-2.26 ± 0.14
CAGCAGCAAUAUUACGGUCG	0.264 ± 0.053	0.584 ± 0.08
CAGCAGCAAUAUUACGGUGA	-2 ± 0.083	-0.913 ± 0.086
CAGCAGCAAUAUUACGUGAU	-3.66 ± 0.15	-1.78 ± 0.14
CAGCAGCAAUAUUACGUUGA	-2.82 ± 0.16	-1.93 ± 0.18
CAGCAGCAAUAUUACGUUUG	-3.1 ± 0.16	-2.01 ± 0.16
CAGCAGCAAUAUUACGUUUU	-2.86 ± 0.1	-1.15 ± 0.11
CAGGAGCAAUAUUACGAAAG	-1.8 ± 0.17	-1.11 ± 0.23
CAGGAGCAAUAUUACGAAGU	-4.19 ± 0.28	-2.39 ± 0.37

Sequence	self-splicing fitness (ln) (30 °C)	self-splicing fitness (ln) (37 °C)
CAGGAGCAAUAUUACGAAUU	-3.43 ± 0.35	-2.43 ± 0.3
CAGGAGCAAUAUUACGACAG	-0.986 ± 0.27	-1.19 ± 0.27
CAGGAGCAAUAUUACGAGCA	-2.15 ± 0.33	-1.53 ± 0.36
CAGGAGCAAUAUUACGAGGG	-3.21 ± 0.24	-1.97 ± 0.2
CAGGAGCAAUAUUACGCAGU	-2 ± 0.31	-1.44 ± 0.29
CAGGAGCAAUAUUACGCCAA	-2.89 ± 0.37	–
CAGGAGCAAUAUUACGCCCG	-2.75 ± 0.42	-0.874 ± 0.37
CAGGAGCAAUAUUACGCCCU	–	-1.65 ± 0.32
CAGGAGCAAUAUUACGCCUA	-0.617 ± 0.19	-1.01 ± 0.21
CAGGAGCAAUAUUACGCCUG	-3.09 ± 0.29	-1.01 ± 0.22
CAGGAGCAAUAUUACGCGCU	-2.49 ± 0.2	-2.62 ± 0.41
CAGGAGCAAUAUUACGCUCG	-3.55 ± 0.34	-1.37 ± 0.33
CAGGAGCAAUAUUACGGAUU	-3.18 ± 0.23	-2.52 ± 0.37
CAGGAGCAAUAUUACGGCAA	-4.26 ± 0.32	-2.84 ± 0.33
CAGGAGCAAUAUUACGGCCG	-0.398 ± 0.09	0.0497 ± 0.12
CAGGAGCAAUAUUACGGCUG	-2.97 ± 0.18	-2.37 ± 0.22
CAGGAGCAAUAUUACGGGAA	-4.1 ± 0.23	-2.47 ± 0.17
CAGGAGCAAUAUUACGGGAG	-1.92 ± 0.18	-0.745 ± 0.17
CAGGAGCAAUAUUACGGGGC	-2.17 ± 0.23	–
CAGGAGCAAUAUUACGGUCC	-2.86 ± 0.24	-2.86 ± 0.38
CAGGAGCAAUAUUACGGUUG	-1.89 ± 0.085	-0.54 ± 0.12
CAGGAGCAAUAUUACGUGAG	-1.42 ± 0.084	-0.711 ± 0.098
CAGGAGCAAUAUUACGUGGC	–	-1.5 ± 0.38
CAGUAGCAAUAUUACGACUG	-4.55 ± 0.26	-2.84 ± 0.23
CAGUAGCAAUAUUACGAUGA	-1.92 ± 0.24	0.175 ± 0.18

Sequence	self-splicing fitness (ln) (30 °C)	self-splicing fitness (ln) (37 °C)
CAGUAGCAAUAUUACGCCAC	-2.54 ± 0.3	–
CAGUAGCAAUAUUACGCGAG	-2.01 ± 0.16	-0.736 ± 0.12
CAGUAGCAAUAUUACGCUAU	-3.57 ± 0.23	-3.27 ± 0.32
CAGUAGCAAUAUUACGCUUG	-0.882 ± 0.13	-0.797 ± 0.22
CAGUAGCAAUAUUACGGAAG	-1.9 ± 0.15	-0.317 ± 0.14
CAGUAGCAAUAUUACGGACU	-2.38 ± 0.16	-0.698 ± 0.12
CAGUAGCAAUAUUACGGAUG	-1.04 ± 0.099	-0.362 ± 0.12
CAGUAGCAAUAUUACGGCGU	-2.25 ± 0.12	-0.753 ± 0.14
CAGUAGCAAUAUUACGGGAA	-2.93 ± 0.26	-2.44 ± 0.25
CAGUAGCAAUAUUACGGUAG	-1.21 ± 0.067	0.0261 ± 0.098
CAGUAGCAAUAUUACGUAAA	-2.13 ± 0.16	-1.61 ± 0.24
CAGUAGCAAUAUUACGUCAU	-3.37 ± 0.22	-2.4 ± 0.26
CAGUAGCAAUAUUACGUCUG	-3.23 ± 0.11	-2.6 ± 0.13
CAGUAGCAAUAUUACGUGAA	-3.97 ± 0.34	-2.15 ± 0.22
CAGUAGCAAUAUUACGUGCC	-3.68 ± 0.35	-1.93 ± 0.27
CAGUAGCAAUAUUACGUUGC	-3.47 ± 0.34	–
CAGUAGCAAUAUUACGUUUU	-3.8 ± 0.24	-3.01 ± 0.24
CAUAAGCAAUAUUACGAAUC	-3.25 ± 0.25	-3.34 ± 0.37
CAUAAGCAAUAUUACGACGU	-2.51 ± 0.14	-1.27 ± 0.15
CAUAAGCAAUAUUACGAGCC	-3.21 ± 0.35	-2.41 ± 0.44
CAUAAGCAAUAUUACGAGUC	-3.2 ± 0.43	-2.68 ± 0.38
CAUAAGCAAUAUUACGCACG	-1.64 ± 0.1	-0.299 ± 0.13
CAUAAGCAAUAUUACGCAGU	-3.05 ± 0.23	-0.865 ± 0.13
CAUAAGCAAUAUUACGCCCG	-0.556 ± 0.16	-0.0931 ± 0.22
CAUAAGCAAUAUUACGCCGU	-3.29 ± 0.36	-1.15 ± 0.19

Sequence	self-splicing fitness (ln) (30 °C)	self-splicing fitness (ln) (37 °C)
CAUAAGCAAUAUUACGCCUG	-2.54 ± 0.22	-1.39 ± 0.17
CAUAAGCAAUAUUACGCGAC	-3.45 ± 0.33	-3.11 ± 0.4
CAUAAGCAAUAUUACGCGAU	-3.46 ± 0.26	-3.08 ± 0.28
CAUAAGCAAUAUUACGCGGG	-1.6 ± 0.17	-2.18 ± 0.25
CAUAAGCAAUAUUACGCUGG	-2.08 ± 0.18	-2.03 ± 0.17
CAUAAGCAAUAUUACGGAAA	–	-0.782 ± 0.37
CAUAAGCAAUAUUACGGAAC	–	-2.26 ± 0.22
CAUAAGCAAUAUUACGGAAU	-4.25 ± 0.23	-2.43 ± 0.18
CAUAAGCAAUAUUACGGAUA	-3.62 ± 0.19	-2.87 ± 0.18
CAUAAGCAAUAUUACGGGUA	-3.36 ± 0.21	-2.64 ± 0.17
CAUAAGCAAUAUUACGGUUG	-2.47 ± 0.094	-1.59 ± 0.1
CAUAAGCAAUAUUACGUAGU	-3.82 ± 0.28	-0.576 ± 0.17
CAUAAGCAAUAUUACGUCGU	-4.23 ± 0.34	-1.64 ± 0.12
CAUAAGCAAUAUUACGUGGU	-3.76 ± 0.17	-3.31 ± 0.2
CAUAAGCAAUAUUACGUGUU	-3.05 ± 0.13	-2.62 ± 0.13
CAUCAGCAAUAUUACGAGUA	-2.12 ± 0.12	-1.47 ± 0.095
CAUCAGCAAUAUUACGAUCU	-0.778 ± 0.06	-0.771 ± 0.087
CAUCAGCAAUAUUACGCACG	-0.443 ± 0.086	0.189 ± 0.11
CAUCAGCAAUAUUACGCAUU	-1.36 ± 0.079	-0.544 ± 0.1
CAUCAGCAAUAUUACGGCGG	-0.364 ± 0.071	0.3 ± 0.12
CAUCAGCAAUAUUACGGGGU	-4.39 ± 0.25	-2.11 ± 0.25
CAUCAGCAAUAUUACGGGUA	-0.63 ± 0.07	-0.0764 ± 0.079
